Measurements from article PMC4140821 (2014).

B1: CSN5^ΔC,WT (human CSN5 1–257 fragment) (domain or fragment)
chain: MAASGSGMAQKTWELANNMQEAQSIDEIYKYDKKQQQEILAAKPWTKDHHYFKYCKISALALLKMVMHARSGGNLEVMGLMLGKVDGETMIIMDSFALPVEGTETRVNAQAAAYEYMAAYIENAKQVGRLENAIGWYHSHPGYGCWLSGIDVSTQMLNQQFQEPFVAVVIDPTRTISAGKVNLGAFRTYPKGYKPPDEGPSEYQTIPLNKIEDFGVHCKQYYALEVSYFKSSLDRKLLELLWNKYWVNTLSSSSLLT
B2: CSN6^ΔC (human CSN6 31–211 fragment) (domain or fragment)
chain: MACGVTGSVSVALHPLVILNISDHWIRMRSQEGRPVQVIGALIGKQEGRNIEVMNSFELLSHTVEEKIIIDKEYYYTKEEQFKQVFKELEFLGWYTTGGPPDPSDIHVHKQVCEIIESPLFLKLNPMTKHTDLPVSVFESVIDIINGEATMLFAELTYTLATEEAERIGVDHVARMTATGS

Assays:
Experiment in all cases: ITC
CSN6^ΔC,H44A = CSN6^ΔC,H44A (human, UniProt Q7L5N1 31-211, H44A)
CSN6^ΔC,V115E = CSN6^ΔC,V115E (human, UniProt Q7L5N1 31-211, V115E)
CSN5^ΔC,R106T = CSN5^ΔC,R106T (human, UniProt Q92905 1-257, R106T)
Sequence of CSN5^ΔC,R106T (Q92905 1-257 R106T): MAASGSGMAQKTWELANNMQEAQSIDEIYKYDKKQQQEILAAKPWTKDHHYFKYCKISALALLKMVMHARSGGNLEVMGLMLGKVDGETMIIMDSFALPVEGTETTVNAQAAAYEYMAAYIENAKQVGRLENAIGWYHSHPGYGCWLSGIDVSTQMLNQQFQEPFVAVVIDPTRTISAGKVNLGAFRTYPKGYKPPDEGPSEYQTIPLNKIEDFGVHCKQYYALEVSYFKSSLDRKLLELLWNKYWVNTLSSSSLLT

Binder	Kd (CSN6^ΔC,H44A) [µM]	Kd (CSN6^ΔC,V115E) [µM]	Kd (CSN5^ΔC,R106T) [µM]
B1	9.2	29	–
B2	–	–	5.8
